Test results reported in paper PMC13486763.

Molecular target: Porcine RNA polymerase II (porcine) (UniProt I3LGP4)
Experiment: mass photometry; Pol II or Pol II-Gdown1 complex with GPN1-GPN3 and/or RPAP2 in a 1:2:2 molar ratio, 30 minutes at 4 °C; measured at 20 nM; 20 mM HEPES-NaOH pH 7.9, 100 mM NaCl, 2 mM MgCl2, 10 µM ZnCl2, 1 mM DTT

Substance: Porcine RNA polymerase II (from UniProt I3LGP4 127-1300; P60899 1-125; A0A4X1VYD0 1-67; A0A8D0JYF1 1-58) (complex)
- stoichiometry N: 2
